What all share (test): SPR, antibody captured, C2 as analyte;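 also: biacore SPR at 37 °C, anti-C2 mAbs captured via goat anti-human IgG on CM5 chips, double-referenced sensorgrams fit to a 1:1 kinetic or steady-state model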
Background: SPR reads the build-up and loss of mass on a sensor chip optically.

For experiment [1], the target named is T1, human C2 K274A (human, UniProt P06681 21-752).
T1 sequence: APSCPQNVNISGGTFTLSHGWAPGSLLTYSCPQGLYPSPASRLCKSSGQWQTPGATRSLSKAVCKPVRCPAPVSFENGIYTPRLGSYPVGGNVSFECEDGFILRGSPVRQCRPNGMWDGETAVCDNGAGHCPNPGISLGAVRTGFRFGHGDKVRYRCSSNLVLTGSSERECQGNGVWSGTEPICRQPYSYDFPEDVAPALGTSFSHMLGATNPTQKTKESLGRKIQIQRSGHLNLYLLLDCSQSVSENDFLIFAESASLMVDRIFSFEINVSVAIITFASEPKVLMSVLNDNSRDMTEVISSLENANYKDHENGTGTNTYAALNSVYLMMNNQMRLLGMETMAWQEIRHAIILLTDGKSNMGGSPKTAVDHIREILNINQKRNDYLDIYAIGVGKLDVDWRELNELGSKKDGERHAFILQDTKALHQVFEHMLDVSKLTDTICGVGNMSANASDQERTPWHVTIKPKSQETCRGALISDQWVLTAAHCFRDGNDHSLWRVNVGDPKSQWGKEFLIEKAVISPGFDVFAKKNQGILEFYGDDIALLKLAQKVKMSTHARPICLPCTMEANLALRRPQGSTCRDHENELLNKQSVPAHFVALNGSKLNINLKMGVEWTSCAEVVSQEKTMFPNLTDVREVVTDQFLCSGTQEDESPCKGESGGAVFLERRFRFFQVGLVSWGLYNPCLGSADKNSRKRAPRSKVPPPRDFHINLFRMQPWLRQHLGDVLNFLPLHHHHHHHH

Experiment [2] concerns the target T2, human C2 H446A (human, UniProt P06681 21-752).
T2 sequence: T1 sequence with A254K, H426A

Experiment [3] concerns the target T3, human C2 N268A (human, UniProt P06681 21-752).
T3 sequence: T1 sequence with N248A, A254K

Experiment [4] deals with T4, human C2 Q447A (human, UniProt P06681 21-752).
T4 sequence: T1 sequence with A254K, Q427A

Residue numbers refer to the chain shown, from its start.

The results in this text go back to patent US20220332804A1 (CSL INNOVATION, published 2022).

B1: RF16-226 (antibody, human IgG4 S228P, lambda)
heavy: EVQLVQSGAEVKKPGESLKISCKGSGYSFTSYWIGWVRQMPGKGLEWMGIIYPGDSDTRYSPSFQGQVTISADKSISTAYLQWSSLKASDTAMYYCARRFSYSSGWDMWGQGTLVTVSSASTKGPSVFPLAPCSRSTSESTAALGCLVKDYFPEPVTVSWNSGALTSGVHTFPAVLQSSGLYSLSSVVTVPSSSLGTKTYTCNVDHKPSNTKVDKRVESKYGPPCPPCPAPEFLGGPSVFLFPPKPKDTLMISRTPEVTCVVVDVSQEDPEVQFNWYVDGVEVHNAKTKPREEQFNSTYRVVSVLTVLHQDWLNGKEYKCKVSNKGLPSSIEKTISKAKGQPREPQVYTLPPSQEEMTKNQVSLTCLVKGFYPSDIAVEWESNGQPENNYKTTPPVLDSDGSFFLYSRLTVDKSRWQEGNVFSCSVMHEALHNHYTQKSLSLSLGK
light: SYELTQPPSVSVSPGQTARITCSGDALTSKYVAWYQQKSGLAPLLVIYEDTRRPSGIPAKFSGSSSGSVATLTISGAHGDDEADYYCYSTDASGHQRVFGGGTKLTVLSQPKAAPSVTLFPPSSEELQANKATLVCLISDFYPGAVTVAWKADGSPVKAGVETTKPSKQSNNKYAASSYLSLTPEQWKSHRSYSCQVTHEGSTVEKTVAPTECS
notes: pH-dependent anti-C2 antibody from a phage display library; also called WT
Consider B1, for which the Kd – broadly, the free concentration of one partner at which half of the binding sites on the other are occupied at equilibrium, for simple one-to-one binding – in experiment [1] is 291 nM; in experiment [2] it was 16.3 nM; in experiment [3], 11.8 nM; in experiment [4], 5.4 nM.
